The results in this text go back to patent publication US20240409617A1.

Substitutions are numbered along the chain they refer to.

For orientation: Kd means the equilibrium constant for the complex coming apart.

Sequences and labels used below:
B1: S1-R3-T1-C4 (Ab_8) scFv-Fc (scFv, V domains shown)
VH: QVQLVQSGAEVKKPGSSVKVSCKASGGTFSSYAISWLRQAPGQGLEWMGWINPNSGGTNYAQKFQGRVTMTRDTSISTAYMELSRLRSDDTAVYYCARGSGGYYLGWGQGTLVTVSS
VL: QPGLTQPPSVSKGLRQTATLTCTGNSNNVGNQGAAWLQQHQGHPPKLLSYMNNNRPPGISERFSASRSGNTASLTITGLQPEDEADYYCSAWDSSLSRWVFGGGTKLSVL
B2: Ab_17 scFv-Fc (scFv, V domains shown)
VH: QVQLVQSGGGVVQPGRSLRLSCAASGFTFDDYAMHWVRQVPGKGLEWVSGIDWNSGVIGYADSVKGRFTISRDNVKNSLYLQMNSLRTEDSALYYCAKDIGPGGSGSYYAFDIWGQGTTVTVSS
VL: QSALTQPASVSGSPGQSITISCTGTSSDVGGSKYVSWYQQHPGKAPKVMIYDVTKRPSGVPDRFSGSKSGNTASLTISGLQAEDEADYYCAAWDDSLNGVVFGGGTKLTVL
B3: Ab_14 scFv-Fc (scFv, V domains shown)
VH: QVQLQQSGPGLVKPSQTLSLTCAISGDSVSSNSAAWNWIRQSPARGLEWLGRTYYRSRWYNDYAISMKSRITINPDTSKNQFSLQLESVTPEDTAVYYCAREIRGFDYWGQGTLVTVSS
VL: QSVLTQPPSASGSPGQSVTISCTGTSSDVGAYNFVSWYQHHPGKAPKLIIYDFNKRPSGVPDRFSGSKSGNTASLTVSGLQADDEADYYCSSYAGSNNFDVVFGGGTKLTVL
B4: S1-RBD-R3-T1-F5 (Ab2-7) scFv-Fc (scFv, V domains shown)
VH: QVTLKESGPTRVKPTQTLTLTCTFSGFSLSTTGVGVGWIRQPPGKALEWLALIYWNDDKRYSPSLKSRLTITKDTSKNQVVLTMTNMDPVDTATYYCARISGSGYFYPFDIWGQGTTVTVSS
VL: NFMLTQPHSVSESPGKTVTISCTRSSGSIASNYVQWYQQRPGSSPTTVIYEDNQRPSGVPDRFSGSIDSSSNSASLTISGLKAEDEADYYCQSYDSSSLWVFGGGTKLTVL
B5: Ab_13 scFv-Fc (scFv, V domains shown)
VH: B4 VH with T10K, R11L, T32S, N56D, T72A, N78Y, T117M, S122A
VL: B4 VL with S44A, A83T, S98N
B6: Ab_16 scFv-Fc (scFv, V domains shown)
VH: QVQLVQSGGGVVQPGRSLRLSCAASGFTFSNYGMHWVRQAPGKGLEWVALIWERGSKKDYADSVKGRFTVSRDNSKNTLYLQMNSLRPEDTAVYFCAREGISMTGAEYFQHWGQGTLVTVSS
VL: QSVLTQPPSVSGSPGQRVTMSCTGSSSNIGAGYDVHWYQQVPGAAPRLLIYGTNNRPSGVPDRFSGSKSGTSASLTITGLQAEDEADYYCQSYDNSLTDPYVFGTGTKVTVL

One assay has as its target B.1.1.7 Spike (SARS-CoV2).
B1 showed a Kd of 2.29 pM and a Response of 0.202.

B2 showed a Kd of 1.85 pM and a Response of 0.331.

B3 registered a dissociation constant Kd of 7.98 pM and a Response of 0.355.

B4 gave a Kd of 379 pM and a Response of 0.127.

Take B5: the Kd was 1.91 pM and the Response turned out to be 0.113.

The molecule B6 returned a Kd of 2.36 pM and a Response of 0.388.

In the next assay the target is P.1 Spike (SARS-CoV2).
In turn, B1 returned a Kd of 10.6 pM and a Response of 0.0784.

On to B2, for which the Kd was determined as 8 pM and the Response was determined as 0.177.

In the case of B3, the Kd amounted to 9.75 pM and the Response was 0.27.

As for B4, the Kd worked out at 7.04 pM and the Response was 0.152.

The molecule B5 had a Kd of 4.88 pM and a Response of 0.112.

In turn, B6 had a Kd of 7.93 pM and a Response of 0.35.

The target of a further assay is B.1.351 Spike (SARS-CoV2).
Consider B1, for which the Kd is 1.09 nM and the Response worked out at 0.0872.

Regarding B2, the Kd is 0.562 nM and the Response turned out to be 0.199.

In turn, B3 showed a Kd of 0.0031 nM and a Response of 0.253.

Molecule B4 had a Kd of 0.36 nM and a Response of 0.13.

B5 displayed a Kd of 0.735 nM and a Response of 0.103.

Turning to B6, the Kd is under 0.001 nM and the Response was 0.405.
